Data as given in paper PMC11266601.

Molecular target: RDTND-RIDC/A (DUF1-RIDC/A, residues 1959–2901, C2838 to alanine), from the 6×His construct (V. vulnificus MO6-24/O)
Assay: ITC

Human calmodulin2 (CaM), 6×His/GST tag cleaved (from UniProt P0DP24 1-149) (natural protein)
stoichiometry N: 1
